Experimental data from the supplement of paper PMC10724198.
± gives the standard deviation of the averaged measurements.

Experiments:
Saccharomyces cerevisiae [1] = experiment: protein stability index of tFT-peptide fusion (C-terminal peptide) (PSI (0-1 scale)); higher = more stable (slower turnover)
Protocol: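 MPS profiling in S. cerevisiae of the tFT-X12 degron library: putative degron peptides plus stable controls, 12 aa, fused to the C-terminus of a sfGFP-mCherry timer. Cells are FACS-sorted into 8 mCherry/sfGFP bins and deep-sequenced. PSI runs from 0 (unstable) to 1 (stable). Backgrounds are wild type, das1Δ and doa10Δ at 30 °C, and wild type, das1Δ, cdc34-1 and cdc53-1 at 37 °C; 2-3 technical replicates each.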

Saccharomyces cerevisiae [2] = experiment: as above; conditions: genetic background: wild type; temperature: 30 C
[3] = genetic background: cdc34-1, temperature: 37 C
[4] = genetic background: cdc53-1, temperature: 37 C
[5] = genetic background: das1 deletion, temperature: 30 C
[6] = genetic background: das1 deletion, temperature: 37 C
[7] = genetic background: doa10 deletion, temperature: 30 C
[8] = genetic background: wild type, temperature: 30 C
[9] = genetic background: wild type, temperature: 37 C
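Also: PSI is a weighted mean of sequencing reads over stability bins, variants kept only with over 10 reads, mCherry proximal and sfGFP distal, peptide attached via GGGS linker.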

With DFIVVIRFIQII the protein stability index (Saccharomyces cerevisiae [1]; [3]) was 0.268 ± 0.012, the protein stability index (Saccharomyces cerevisiae [1]; [4]) was 0.376 ± 0.009 and the protein stability index (Saccharomyces cerevisiae [1]; [5]) was 0.266 ± 0.023. The protein stability index (Saccharomyces cerevisiae [1]; [6]) was 0.3971 ± 0.0035, the protein stability index (Saccharomyces cerevisiae [1]; [7]) was 0.1447 ± 0.001 and the protein stability index (Saccharomyces cerevisiae [1]; [8]) was 0.154 ± 0.027. It also gave a protein stability index (Saccharomyces cerevisiae [1]; [9]) of 0.235 ± 0.0043 and a protein stability index (Saccharomyces cerevisiae [2]) of 0.232 ± 0.017.

Work on DFVYFPPIPVSS yielded a protein stability index (Saccharomyces cerevisiae [1]; [3]) of 0.303 ± 0.0088, a protein stability index (Saccharomyces cerevisiae [1]; [4]) of 0.352 ± 0.039 and a protein stability index (Saccharomyces cerevisiae [1]; [5]) of 0.253 ± 0.051. It also gave a protein stability index (Saccharomyces cerevisiae [1]; [6]) of 0.462 ± 0.011, a protein stability index (Saccharomyces cerevisiae [1]; [7]) of 0.218 ± 0.0036 and a protein stability index (Saccharomyces cerevisiae [1]; [8]) of 0.266 ± 0.032. The protein stability index (Saccharomyces cerevisiae [1]; [9]) was 0.409 ± 0.006 and the protein stability index (Saccharomyces cerevisiae [2]) was 0.337 ± 0.018.

DISWVFVLLIFF gave a protein stability index (Saccharomyces cerevisiae [1]; [3]) of 0.333 ± 0.036, a protein stability index (Saccharomyces cerevisiae [1]; [4]) of 0.402 ± 0.012 and a protein stability index (Saccharomyces cerevisiae [1]; [5]) of 0.3 ± 0.033. The protein stability index (Saccharomyces cerevisiae [1]; [6]) was 0.485 ± 0.029, the protein stability index (Saccharomyces cerevisiae [1]; [7]) was 0.318 ± 0.023 and the protein stability index (Saccharomyces cerevisiae [1]; [8]) was 0.279 ± 0.039. It also gave a protein stability index (Saccharomyces cerevisiae [1]; [9]) of 0.445 ± 0.011 and a protein stability index (Saccharomyces cerevisiae [2]) of 0.382 ± 0.026.

DMWYLLWRVCYI gave a protein stability index (Saccharomyces cerevisiae [1]; [3]) of 0.51263 ± 0.00047, a protein stability index (Saccharomyces cerevisiae [1]; [4]) of 0.549 ± 0.056 and a protein stability index (Saccharomyces cerevisiae [1]; [5]) of 0.43 ± 0.022. The protein stability index (Saccharomyces cerevisiae [1]; [6]) was 0.582 ± 0.02, the protein stability index (Saccharomyces cerevisiae [1]; [7]) was 0.37 ± 0.02 and the protein stability index (Saccharomyces cerevisiae [1]; [8]) was 0.409 ± 0.026. It also gave a protein stability index (Saccharomyces cerevisiae [1]; [9]) of 0.56 ± 0.01 and a protein stability index (Saccharomyces cerevisiae [2]) of 0.48 ± 0.028.

For DNTYRIDIKNKQ, the protein stability index (Saccharomyces cerevisiae [1]; [3]) was 0.764 ± 0.093, the protein stability index (Saccharomyces cerevisiae [1]; [4]) was 0.771 ± 0.04 and the protein stability index (Saccharomyces cerevisiae [1]; [5]) was 0.641 ± 0.019. It also gave a protein stability index (Saccharomyces cerevisiae [1]; [6]) of 0.689 ± 0.0069, a protein stability index (Saccharomyces cerevisiae [1]; [7]) of 0.4753 ± 0.0045 and a protein stability index (Saccharomyces cerevisiae [1]; [8]) of 0.466 ± 0.013. The protein stability index (Saccharomyces cerevisiae [1]; [9]) was 0.6553 ± 0.00098.

EGALSGGGKTSG gave a protein stability index (Saccharomyces cerevisiae [1]; [3]) of 0.643 ± 0.045, a protein stability index (Saccharomyces cerevisiae [1]; [4]) of 0.719 ± 0.019 and a protein stability index (Saccharomyces cerevisiae [1]; [5]) of 0.634 ± 0.016. The protein stability index (Saccharomyces cerevisiae [1]; [6]) was 0.7181 ± 0.0047, the protein stability index (Saccharomyces cerevisiae [1]; [7]) was 0.636 ± 0.014 and the protein stability index (Saccharomyces cerevisiae [1]; [8]) was 0.631 ± 0.012. For the same sequence, the protein stability index (Saccharomyces cerevisiae [1]; [9]) was 0.692 ± 0.018 and the protein stability index (Saccharomyces cerevisiae [2]) was 0.651 ± 0.24.

With EKIIVAVLFVVP the protein stability index (Saccharomyces cerevisiae [1]; [3]) was 0.354 ± 0.032, the protein stability index (Saccharomyces cerevisiae [1]; [4]) was 0.482 ± 0.054 and the protein stability index (Saccharomyces cerevisiae [1]; [5]) was 0.305 ± 0.02. It also gave a protein stability index (Saccharomyces cerevisiae [1]; [6]) of 0.504 ± 0.012, a protein stability index (Saccharomyces cerevisiae [1]; [7]) of 0.281 ± 0.0051 and a protein stability index (Saccharomyces cerevisiae [1]; [8]) of 0.302 ± 0.02. It also gave a protein stability index (Saccharomyces cerevisiae [1]; [9]) of 0.439 ± 0.02 and a protein stability index (Saccharomyces cerevisiae [2]) of 0.437 ± 0.043.

For ENKGGNQKRRKK, the protein stability index (Saccharomyces cerevisiae [1]; [3]) was 0.686 ± 0.048, the protein stability index (Saccharomyces cerevisiae [1]; [4]) was 0.743 ± 0.056 and the protein stability index (Saccharomyces cerevisiae [1]; [5]) was 0.628 ± 0.056. It also gave a protein stability index (Saccharomyces cerevisiae [1]; [6]) of 0.736 ± 0.012, a protein stability index (Saccharomyces cerevisiae [1]; [7]) of 0.646 ± 0.014 and a protein stability index (Saccharomyces cerevisiae [1]; [8]) of 0.635 ± 0.021. The protein stability index (Saccharomyces cerevisiae [1]; [9]) was 0.698 ± 0.035 and the protein stability index (Saccharomyces cerevisiae [2]) was 0.559 ± 0.18.

For EQMRRYILVSYV, the protein stability index (Saccharomyces cerevisiae [1]; [3]) was 0.522 ± 0.021, the protein stability index (Saccharomyces cerevisiae [1]; [4]) was 0.609 ± 0.025 and the protein stability index (Saccharomyces cerevisiae [1]; [5]) was 0.427 ± 0.019. It also gave a protein stability index (Saccharomyces cerevisiae [1]; [6]) of 0.5998 ± 0.0036, a protein stability index (Saccharomyces cerevisiae [1]; [7]) of 0.198 ± 0.0082 and a protein stability index (Saccharomyces cerevisiae [1]; [8]) of 0.243 ± 0.02. It also gave a protein stability index (Saccharomyces cerevisiae [1]; [9]) of 0.4255 ± 0.0019 and a protein stability index (Saccharomyces cerevisiae [2]) of 0.352 ± 0.033.
